Results from patent US10098960B2, “Polymer conjugate” (UCL Business PLC, priority 2015, dated 2018).
Positions count from the first letter of the chain named. Names and notes keep the numbering of the source.

How the values were obtained:
[1] = system: binding of aPLs to immobilised native antigen; conditions: aPLs from patients with pregnancy loss and with thrombosis; Ioannou et al. 2007; cited from earlier work
[2] = system: IgA binding to immobilised β2GPI; experiment: Competitive inhibition ELISA for IgA binding to β2GPI; set-up: species or system human; conditions: FIG. 9
Protocol: (§1) Competitive inhibition ELISA was carried out to test the ability of recombinant DI to inhibit binding of purified IgG from patients with APS to immobilised β2GPI. The assay was adapted from the standard β2GPI ELISA published by Ioannou et al., (BMC biotechnology 2006, 6:8) with the following amendments: the inhibitors were pre-incubated at concentrations ranging from 0 mg/ml to 200 μg/ml rather than 0 to 30 μM. Briefly, the test was carried out to test the ability of recombinant DI to inhibit binding of purified IgG from patients with APS to β2GPI coated on a plate. Recombinant DI was pre-incubated with patient serum prior to addition on the ELISA plate coated with β2GPI. Bound patient IgG was detected with an anti-human IgG HRP secondary antibody. Each sample was tested in duplicate.
Assays were carried out using identical methodology to Example 6 with the following alteration; an anti-human IgA secondary conjugated to HRP was used rather than an anti-human IgG secondary antibody.

[3] = system: purified IgG from patients with APS in normal human plasma (lupus anticoagulant effect); experiment: LA (Lupus Anticoagulant) dilute Russel Viper Venom (dRVT-plus) coagulometer assay; type: biochemical; conditions: 500 μg/ml antibody and 25 μg/ml DI; IgG from four APS patients; FIGS. 8A-8D
Protocol: LA (Lupus Anticoagulant) Dilute Russel Viper Venom (dRVT-plus) Assay:
Assay reagents were used as described in manufacturer's (Haematex) instructions.
This assay reproduces the “lupus anticoagulant” (LA) effect, a test in which antibodies from serum of patients with APS cause a measurable prolongation of clotting time under specific conditions in vitro. Purified IgG from four patients with APS (shown as FIGS. 8A-8D) was pre-incubated with the DI constructs at a molar ratio of ˜1:1 (500 μg/ml antibody and 25 μg/ml DI) before being added to normal human plasma either with or without excess phospholipid—which prevents the anticoagulant effect of the IgG. The results are expressed as ratio of clotting time in absence to that in the presence of excess phospholipid. The higher the ratio, the greater the biological effect exerted by the IgG-APS.
Plasma was thawed on ice, meanwhile the Coagulometer (CA-50, Sysmex) was allowed to warm and reagents were prepared.
Patient antibodies were purified using Protein G IgG purification kit (Pierce), as described by manufacturer's instructions. IgA antibodies are purified using Jacalin beads (Pierce), as per manufacturer's instructions. […]
Plasma was dispensed into glass vials (200 μl×2) and reagents, either low [phospholipid] […] When the clot reached 50% the timing was stopped and recorded. […]

[4] = system: APS IgG-induced femoral vein thrombus formation; experiment: In vivo mouse blood clot model (blood vessel pinch model); set-up: species or system C57BL/6 mice; conditions: recombinant wild-type DI 40 μg intraperitoneally at 0 h and 48 h; 500 μg APS IgG; femoral vein pinch at 72 h; FIG. 10
Protocol: In vivo analysis of inhibition of thrombus formation by DI was carried out in a similar manner to those described within Ioannou et al., 2009, Journal of Thrombosis and Haemostasis, 7: 833-842, In vivo inhibition of antiphospholipid antibody-induced pathogenicity utilizing the antigenic target peptide domain I of beta2-glycoprotein I: proof of concept.
C57BL/6 mice (The Jackson Laboratory, Bar Harbor, Me., USA) were used for these studies.
NHS IgG and APS IgG mean protein G purified antibody obtained from Normal Healthy Subjects or APS patients respectively.
At time 0 h, 2 control groups were untreated, whereas 3 groups of mice were injected intraperitoneally with either recombinant wild-type DI (40 μg), PEGylated wild-type DI (20 μg) or PEG alone, in phosphate-buffered saline (PBS). After 60 min, 4 groups of mice were then treated intraperitoneally with 500 μg of APS IgG, while 1 group received 500 μg of NHS IgG, both in PBS. Both of these treatments were repeated at 48 h and 49 h respectively. The APS IgG dose was the minimal amount of APS IgG antibody required to increase thrombus size beyond two standard deviations (SDs) of the mean size induced by control NHS IgG post-injury. The APS IgG/DI molar ratios were 2.3:1, 1.15:1. […] A pinch stimulus was applied and the thrombus formation was visualised using a transilluminator and measured electronically. […]

[5] = system: aPL-induced venous thrombosis formation; conditions: mouse model of APS; Ioannou et al. 2009; cited from earlier work
[6] = system: binding of purified IgG from patients with APS to immobilised β2GPI; experiment: Competitive inhibition ELISA (IgG); set-up: species or system human; conditions: 175 μg/ml of test protein
Protocol: as §1
Competitive inhibition data is generally expressed as retained binding of the antibody to the antigen on the plate in the presence of the inhibitor protein (DI-PEG or DI). […] Activities of PEGylated or non-PEGylated DI are given based on % inhibition. FIGS. 7A-7F show % inhibition data for pegylated and non-pegylated DI constructs.

B1: wild-type DI: recombinant wild-type domain I of human β2GPI, SEQ ID NO: 2, approximately 7 kDa, unconjugated (protein, listed as Homo sapiens)
chain: GRTCPKPDDLPFSTVVPLKTFYEPGEEITYSCKPGYVSRGGMRKFICPLTGLWPINTLKCTPR
modifications: ends and bridges not checked
In the case of B1, the “inhibition of binding of aPLs to immobilised native antigen” value [1] is listed as “inhibit the binding of aPLs”, the “inhibition of IgA binding to β2GPI” value [2] is listed as “inhibits IgA binding to β2GPI” and the “inhibition of lupus anticoagulant effect (ratio of clotting time in absence to presence of excess phospholipid)” value [3] is listed as “inhibit this biological effect of IgG APS”. The “inhibition of thrombus formation (clot size)” value [4] was “prevented the formation of large blood clots” and the “inhibition of in vivo aPL-induced venous thrombosis formation” value [5] was “inhibit in vivo aPL-induced venous thrombosis formation”.

B2: WT DI-PEG (20 kDa): wild-type domain I β2GPI (SEQ ID NO: 2) mono-PEGylated across a disulfide bridge with 20 kDa PEG reagent 1 (conjugate, listed as Homo sapiens)
chain: B1 chain
modifications: not fully specified (bridges); ends and bridges not checked; also: mono-PEGylated across a disulfide bridge, Cys places not given here
For B2, the “Retained Activity of WT DI-PEG (20 kDa) Vs WT DI (%)” value (“Retained Activity of WT DI-PEG … (%)” for short) ([6]; Patient 1 IgG) was 98.5%, the “Retained Activity of WT DI-PEG … (%)” value ([6]; Patient 2 IgG) was 74.9% and the “Retained Activity of WT DI-PEG … (%)” value ([6]; Patient 3 IgG) was 88.3%. The “Retained Activity of WT DI-PEG … (%)” value ([6]; Patient 4 IgG) was 91.5%, the “Retained Activity of WT DI-PEG … (%)” value ([6]; Patient 5 IgG) was 70% and the “Retained Activity of WT DI-PEG … (%)” value ([6]; Patient 6 IgG) was 91.9%.

B3: D8S, D9G mutant-PEG (20 kDa): D8S,D9G variant domain I (SEQ ID NO: 3) mono-PEGylated with 20 kDa PEG reagent (conjugate)
chain: B1 chain with D8S, D9G
modifications: ends and bridges not checked; also: mono-PEGylated with 20 kDa PEG reagent, site not given here
With B3 the “Retained Activity of D8S, D9G mutant-PEG (20 kDa) Vs D8S, D9G (%)” value (from here on “Retained Activity of D8S … (%)”) ([6]; Patient 1 IgG) was 87.8%, the “Retained Activity of D8S … (%)” value ([6]; Patient 2 IgG) was 70.8% and the “Retained Activity of D8S … (%)” value ([6]; Patient 3 IgG) was 83.3%. For the same molecule, the “Retained Activity of D8S … (%)” value ([6]; Patient 4 IgG) was 100%, the “Retained Activity of D8S … (%)” value ([6]; Patient 5 IgG) was 64% and the “Retained Activity of D8S … (%)” value ([6]; Patient 6 IgG) was 100%.

B4: DI(D8S/D9G): variant of domain I of human β2GP1, SEQ ID NO: 3, unconjugated (protein)
chain: B1 chain with D8S, D9G
modifications: ends and bridges not checked
For B4, the “inhibition of binding of aPLs to immobilised native antigen” value [1] is given as “inhibition is greater” and the “inhibition of in vivo aPL-induced venous thrombosis formation” value [5] is given as “inhibit in vivo aPL-induced venous thrombosis formation”.
